The values that follow come from patent publication US20250382354A1 (INSTITUTE FOR RESEARCH IN BIOMEDICINE IRB, published 2025).

The chains are these.
B1: hr2.020 (antibody, V domains shown)
VH: EVQLVQSGAEVKKPGESLKISCKGSGYRFASHWIGWVRQMPGKGLQWMGIIYPGDSDTKYSPSFQGQVTISADKSINTVYLHWTSLKASDTAVYYCARRPPHLDGGDSPIRFDHWGQGTLVTVSS
VL: QSVLTQPPSASGTPGQRVTISCSGSRSNIGSNDVYWYQQFPGTAPKLLIYRNNQRPSGVPDRFSGSKSGTSASLAISGLRSEDEADYYCATWDDRLTGVFGGGTKLTVV
B2: rbd.043 (antibody, V domains shown)
VH: QVQLVQSGAEVKKPGSSVKVSCKVSGGSFSNYGISWVRQAPGQGLEWMGGIIPLFGPADYAQKVQGRVTITADKSTSTAYMELRSLRSEDTAVYFCARGVEIVATIVGPLVREDHYYYYGMDVWGQGTTVTVSS
VL: not shown
B3: rbd.035 (antibody, V domains shown)
VH: EVQLLESGGGLIEPGGSLRLSCAASGFPFNTFAMTWVRQPPGKGLEWVATISSRGDYTFYADFVKGRFSISRDNANNALWLDMSGLRAEDTALYYCAKGESGYDLYLYGLDLWGQGTTVTVSS
VL: DIQMTQSPSSLSASVGDGVTITCRASQNINNYLSWYQKKAGKAPKLLIYGASTLHSGVPSRFSGSGSGTDFTLTISSLQPEDFASYYCQQNSPTPPWTFGQGTKVEIK
B4: rbd.048 (antibody, V domains shown)
VH: EVQLVESGGGLVQPGGSLRLSCAASGFTVSSNYMTWVRQAPGKGLEWVSVIYSGGSTFYTDSVKGRFTISRDNSKNTLYLQMNSLRAEDTAVYYCARDVVYYGMDVWGQGTTVTVSS
VL: DIQMTQSPSSLSASVGDRVTITCRASQSISSYLNWYQQKPGKAPKLLIYAASSLQSGVPSRFSGSGSGTDFTLTISSLQPEDFATYYCQESYSNSPYTFGQGTKLEIK
B5: rbd.038 (antibody, V domains shown)
VH: QVQLVQSGAEVKKPGASVKVSCKASGYTFSGYYMHWVRQAPGQGLEWVGWISPTSGGTKYAQKFQGRVTMTRDTSITTVYMELNRLRSDDTAVYYCAREPFPYCTSDICHSNYFYYYAMDVWGQGTTVTVSS
VL: QSALTQPPSASGSPGQSVTISCTGSSSDLGDHNYVSWYQQHPGKAPKVMIYEVSKRPSGVPDRFSGSKSGNTASLTVSGLQAEDEADYYCSSYAGSLYVFGTGTKVTVL
B6: rbd.045 (antibody, V domains shown)
VH: QVQLQESGPGLVKPSETLSLTCTVSGGAFRSFFWTWIRQPPGKGLEWIGNIYYSGSTNYNPSLKSRVTISQDMSENQFSLKLSSVTAADTAVYYCARSQWLRGNFDHWGQGILVTVSS
VL: NFMLTQPHSVSESPGKTVTISCTATSGYIASNYVQWYQQRPGSAPTTVIYEDNQRPSGVPDRFSGSIDSSSNSASLTISGLKPEDEADYYCQSFDTAYAVFGGGTQLTVL
B7: sd1.127 (antibody, V domains shown)
VH: EVQLVESGGALVKPGGSLTLSCVASGFTFSHAWMTWVRQAPGKGLEWVGRIKTKTEGGTIDYAAPLRGRFTISRDDSKNTLYLRMNSLKIEDTAKYYCTTHSSPDYWGQGTLVTVSS
VL: DIQMTQSPSSLSASIGDRVTITCRASQGIGNSLLWYQQKRGKVPKLLIYAASTLQSGVPSRFSGSGSGTDFTLTISSLQPEDVATYYCQRYNSAPLTFGGGTKVEIK
B8: rbd.031 (antibody, V domains shown)
VH: EVQLVESGGGVVQPGRSLRLSCAASGFTFKTYGMHWVRQAPGKGLEWVAVISYEGSNEYYAESVKGRFTISRDNSKNTLYLHMNSLRAEDTAVYYCAKGEYYYHSSTYYYLDYWGRGTLVTVSS
VL: DIQMTQSPSTLSASVGDRVTITCRASQSISSWLAWYQQKPGKAPKVLIYDASSLQSGVPLRFSGSGSGTEFTLTISSLQPDDFATYYCQQYDTYWTFGQGTKVEIK

The first experiment concerns the target HKU24 HR2 peptide (HKU24). Description: peptide ELISA.
Turning to B1, the EC50 was found to be 32.9 ng/mL.

The next experiment has as its target SARS-CoV-2 S of the Ancestral pseudovirus (pSARS-COV2-Strunc) (SARS-CoV-2 (ancestral), UniProt P0DTC2 14-1254). As to the kind of experiment: cell-based or functional assay.
On to B2, for which the “Ancestral Pseudovirus IC50” value stood at 0.573 ng/mL.
Same read-out and setting: the result for B3 reads 1.52 ng/mL.
As to B4, the “Ancestral Pseudovirus IC50” value was 2.75 ng/mL.
Same read-out and setting: as for B5, the figure is 0.552 ng/mL; as for B6, 5.57 ng/mL.
Regarding B7, the “Ancestral Pseudovirus IC50” value worked out at 6680 ng/mL.
On the same count and under the same terms, the result for B8 reads 862 ng/mL.
